The nature of the test: Sugar kinase activity of cell lysates with D-galactose at 37, 45, 55° C. (DNS assay). Format: biochemical. The settings on record: 8 mM D-galactose; 37, 45 and 55° C. The source says:
The formation of a phosphorylated sugar by kinase activity can be monitored by a number of methods. One method for detecting sugar-1-kinase activity is the 3,5-dinitrosalicylic acid (DNS) assay. This assay exploits the fact that reducing sugars can reduce compounds such as 3,5-dinitrosalicylic acid, which undergo a color change upon reduction. This assay can be used for sugar-1-kinases since the product of their reaction (sugar-1-phosphate) no longer has the ability to reduce DNS. Therefore, when the reaction is complete no color change occurs when incubated with DNS and the result is a yellow color. However, when reducing sugar remains, the result is reduction of DNS and red/brown color. This assay is furthermore concentration dependent providing a linear color change from 0.1 to 10 mM reducing sugar.
The sugar kinase proteins were expressed recombinantly in E. coli induced with 0.5mM IPTG and partially purified cell lysates were then assayed (100 μL) with 400 μmM ATP, 3.5 mM Mg^2+, and 8 mM D-galactose at three different temperatures, 37, 45, and 55° C. […] A negative control was treated similarly and consisted of the host strain with empty plasmid.

B1: P. furiousus: Pyrococcus furiosus wild-type sugar-1-kinase (SEQ ID NO:10) (protein, listed as Pyrococcus furiosus)
chain: MSKITVKSPGRVNLIGEHTDYTYGYVMPMAIDLYTIITAEKYDKVQLYSEHFNEEKTFTLDNLTKEGSWIDYVKGVLWVLIQEGYKIGGLKGKITGDLPLGAGLSSSASFEVGILEVLNQLYNLNIDPLKKALLAKKAENEFVGVPCGILDQFAVVFGKKDNVIFLDTQTLQYEYIPFPKDVSVLVFYTGVKRELASSEYAERKRIAEESLRILGKESSKEVTEKDLGKLPPLHRKFFSYIVRENARVLEVRDALKEGDIEKVGKILTTAHWDLAENYRVSCEELDFFVKKAMELGAYGARLTGAGFGGSAIALVDKDKAKTIGDAILREYLAKFSWKAKYFVVKPSDGVGV
Take B1: the “activity in partially purified cell extract” value (shortened to “activity”) is “more active at temperatures higher than 37 °C”.

B2: S. thermophilus: Streptococcus thermophilus wild-type sugar-1-kinase (SEQ ID NO:8) (protein, listed as Streptococcus thermophilus)
chain: MNTSQLREKFKEVFGVEADHTFFSPGRINLIGEHTDYNGGNVLPVAITLGTYGAARKRDDKVLRFFSANFEEKGIIEVPLENLRFEKEHNWTNYPKGVLHFLQEAGHTIDSGMDIYIYGNIPNGSGLSSSSSLELLIGVIVEKLYDIKLERLDLVKIGKQTENDFIGVNSGIMDQFAIGMGADQCAIYLDTNTLKYDLVPLDLKDNVVVIMNTNKRRELADSKYNERRAECETAVSELQEKLDIQTLGELDFLTFDAYSYLIKDENRIKRARHVVLENQRTLQARKALEAGDLEGFGRLMNASHVSLEYDYEVTGLELDTLAHTAWEQEGVLGARMTGAGFGGCAIALVNKDKVEDFKKAVGQRYEEVVGYAPSFYIAEVTGGSRVLD
Regarding B2, the “activity” value is reported as “most activity”.

B3: T. thermophilus: Thermus thermophilus wild-type sugar-1-kinase (SEQ ID NO:9) (protein, listed as Thermus thermophilus)
chain: MGFQEVYGVLPQASAQAPGRVNLLGEHTDYQEGYVLPTPIPYFTRVEAAPLEGAVEAFSENLGELRARPLSSPPQGDFLDYLLGVVRALREAGHEVAGARFYVRSDLPMGAGLSSSAALEVAALRALRTLYRLPLSDLEVARLAQKAEVEYVGVRCGIMDQMAASLGQPGQALFLDTRTLAYENLPLPPGVRVAVLDLGLGRRLAEAGYNRRRQEAEEAAKRLGVRSLRDVADLCLVESLPSPLDRRARHVVSENLRVLRGVEALRRGDARAFGELMTQSHRSLAQDYEVNLPELDALVEEALRAGAYGAKLTGAGFGGAVVALVAESRFPAFREALARRFPDLKVL
As for B3, the “activity” value was “more active at temperatures higher than 37 °C”.
